This passage reports MdFI results from publication PMC9087419 (European Journal of Immunology, 2022).

Common to all, as to assay: flow cytometry on cells
Holding throughout (conditions): one partner purified
For orientation: In flow cytometry, cells or beads pass a laser one at a time.

Assay [1] deals with T1, SARS‐CoV‐2 spike membrane protein of the Delta variant (B.1.617.2) (SARS-CoV-2, Delta variant B.1.617.2, strain).
T1 construct: also called Delta spike protein

The target in assay [2] is T2, SARS‐CoV‐2 spike membrane protein of the Wuhan‐Hu‐1 strain (SARS-CoV-2 Wuhan-Hu-1 (QHD43416.1), UniProt P0DTC2).
T2 construct: source: HEK293, transiently cotransfected (PEI) with a GFP plasmid, on the cell surface

In assay [3] the target is T3, SARS‐CoV‐2 spike membrane protein of the Omicron variant (B.1.1.529) (SARS-CoV-2, Omicron variant B.1.1.529, …, strain).
T3 construct: also called Omicron spike protein

B1: BMS‐986414 (C135) (antibody, V domains shown)
VH: QVQLVESGGGVVQPGRSLRLSCAASGFTFSSYAMHWVRQAPGKGLEWVAVIPFDGRNKYYADSVTGRFTISRDNSKNTLYLQMNSLRAEDTAVYYCASSSGYLFHSDYWGQGTLVTVSS
VL: DIQMTQSPSTLSASVGDRVTITCRASQSISNWLAWFQQKPGKAPKLLIYEASSLESGVPSRFSGSGSGTEFTLTISSLQPDDFATYYCQQYNSYPWTFGQGTKVEIK
As to B1, the MdFI in assay [1] amounted to 666000.

B2: LY‐CoV555 (Bamlanivimab) (antibody, V domains shown)
VH: QVQLVQSGAEVKKPGSSVKVSCKASGGTFSNYAISWVRQAPGQGLEWMGRIIPILGIANYAQKFQGRVTITADKSTSTAYMELSSLRSEDTAVYYCARGYYEARHYYYYYAMDVWGQGTAVTVSS
VL: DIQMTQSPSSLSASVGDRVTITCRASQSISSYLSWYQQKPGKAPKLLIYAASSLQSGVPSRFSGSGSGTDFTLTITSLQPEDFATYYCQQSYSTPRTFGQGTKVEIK
Regarding B2, the MdFI in assay [2] was 355000; in assay [1], 40000.

B3: CT‐P59 (Regdanivimab) (antibody, V domains shown)
VH: QITLKESGPTLVKPTQTLTLTCSFSGFSLSTSGVGVGWIRQPPGKALEWLALIDWDDNKYHTTSLKTRLTISKDTSKNQVVLTMTNMDPVDTATYYCARIPGFLRYRNRYYYYGMDVWGQGTTVTVSS
VL: ELVLTQPPSVSAAPGQKVTISCSGSSSNIGNNYVSWYQQLPGTAPKLLIYDNNKRPSGIPDRFSGSKSGTSATLGITGLQTGDEADYYCGTWDSSLSAGVFGGGTELTVL
notes: also called Regdanvimab; Regkirona
Regarding B3, the MdFI amounted to 131000 in assay [2] and 233000 in assay [1].

B4: REGN10933 (Casirivimab) (antibody, V domains shown)
VH: QVQLVESGGGLVKPGGSLRLSCAASGFTFSDYYMSWIRQAPGKGLEWVSYITYSGSTIYYADSVKGRFTISRDNAKSSLYLQMNSLRAEDTAVYYCARDRGTTMVPFDYWGQGTLVTVSS
VL: DIQMTQSPSSLSASVGDRVTITCQASQDITNYLNWYQQKPGKAPKLLIYAASNLETGVPSRFSGSGSGTDFTFTISGLQPEDIATYYCQQYDNLPLTFGGGTKVEIK
As for B4, the MdFI in assay [3] turned out to be 103000; in assay [2], 236000; in assay [1], 148000.

B5: 3467 (antibody, V domains shown)
VH: QVQLQESGPGLVKPSETLSLTCTVSGGSISSYHWNWIRQPPGKGLEWIGYIYYSGNTNYNPSLKSRVSISTDTSKNQFSLKLSSVTAADTAVYYCVREMRRGYSGYDYWDLYAFDIWGQGTMVTVSS
VL: DIQLTQSPSFLSASVGDRVTITCRASQGISSYLAWYQQKPGKAPNLLIYAASTLQSGVPSRFSGSGSGTEFTLTISSLQPEDFATYYCQQLNSYPHTFGQGTKLEIK
notes: also called TRIANNI mouse‐derived antibody 3467
For the molecule B5, the figures for the MdFI in assay [3], in assay [2] and in assay [1] were 25000, 165000 and 31000, respectively.

B6: 8D2 (antibody, V domains shown)
VH: EVQLVESGGGLVQPGGSLRLSCAASGFTFSSYWMSWVRQAPGKGLEWVANINQDGSEKYYVDSVKGRFTISRDNAKNSLYLQVNSLRAEDTAVYYCARDWDYDILTGSWFGAFDIWGQGTTVTVSS
VL: DIQMTQSPSSLSASVGDRVTITCRASQGIRNDLGWYQQKPGKAPKRLIYAASSLQSGVPSRFSGSGSGTEFTLTISSLQPEDFATYYCLQHNSYPLTFGGGTKVEIK
As to B6, the MdFI in assay [2] was 37000.

B7: LY‐CoV016 (Etesevimab) (antibody, V domains shown)
VH: EVQLVESGGGLVQPGGSLRLSCAASGFTVSSNYMSWVRQAPGKGLEWVSVIYSGGSTFYADSVKGRFTISRDNSMNTLFLQMNSLRAEDTAVYYCARVLPMYGDYLDYWGQGTLVTVSS
VL: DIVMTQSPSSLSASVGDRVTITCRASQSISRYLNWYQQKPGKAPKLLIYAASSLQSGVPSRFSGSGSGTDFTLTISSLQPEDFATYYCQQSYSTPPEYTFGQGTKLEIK
Turning to B7, the values for the MdFI in assay [2] and in assay [1] were 282000 and 192000, respectively.

B8: BMS‐986413 (C144) (antibody, V domains shown)
VH: EVQLVESGGGLIQPGGSLRLSCAASGFTVSNNYMSWVRQAPGKGLEWVSVIYSGGSTYYADSVKGRFTISRDKSKNTLYLQMNRLRAEDTAVYYCAREGEVEGYNDFWSGYSRDRYYFDYWGQGTLVTVSS
VL: QSALTQPASVSGSPGQSITISCTGTSSDVGGYNYVSWYQQHPGKAPKLMIYDVSNRPSGVSNRFSGSKSGNTASLTISGLQAEDEADYYCSSYTSSSTRVFGTGTKVTVL
As to B8, the MdFI in assay [2] worked out at 340000; in assay [1] it was 408000.

B9: REGN10987 (Imdevimab) (antibody, V domains shown)
VH: QVQLVESGGGVVQPGRSLRLSCAASGFTFSNYAMYWVRQAPGKGLEWVAVISYDGSNKYYADSVKGRFTISRDNSKNTLYLQMNSLRTEDTAVYYCASGSDYGDYLLVYWGQGTLVTVSS
VL: QSALTQPASVSGSPGQSITISCTGTSSDVGGYNYVSWYQQHPGKAPKLMIYDVSKRPSGVSNRFSGSKSGNTASLTISGLQSEDEADYYCNSLTSISTWVFGGGTKLTVL
In the case of B9, the MdFI in assay [2] amounted to 371000; in assay [1], 471000.

B10: S2H97 (antibody, V domains shown)
VH: QVRLVQSGAEVKKSGESLKISCKGSGYSFTSYWIGWVRQMPGKGLEWMGIIYPGDSDTRYSPSFQGQVTISADKSISTVYLQWSSLKASDTAMYYCARQWSHYTYDYYYWGQGTLVTISS
VL: QSVLTQPASVSGSPGQSITISCTGISSDVGGYNSVSWYQQHPGKAPKLMIYDVTNRPSGVSNRFSGSKSGNTASLTISGLQAEDEADYYCSSYTSSSTPPYVFGTGTKVSVL
As to B10, the MdFI in assay [3] came out at 296000; in assay [2] it was 58000; in assay [1], 74000.

B11: AZD1061 (Cilgavimab) (antibody, V domains shown)
VH: EVQLVESGGGLVKPGGSLRLSCAASGFTFRDVWMSWVRQAPGKGLEWVGRIKSKIDGGTTDYAAPVKGRFTISRDDSKNTLYLQMNSLKTEDTAVYYCTTAGSYYYDTVGPGLPEGKFDYWGQGTLVTVSS
VL: not shown
Regarding B11, the MdFI in assay [3] stood at 101000; in assay [1], 468000.

B12: AZD8895 (Tixagevimab) (antibody, V domains shown)
VH: QMQLVQSGPEVKKPGTSVKVSCKASGFTFMSSAVQWVRQARGQRLEWIGWIVIGSGNTNYAQKFQERVTITRDMSTSTAYMELSSLRSEDTAVYYCAAPYCSSISCNDGFDIWGQGTMVTVSS
VL: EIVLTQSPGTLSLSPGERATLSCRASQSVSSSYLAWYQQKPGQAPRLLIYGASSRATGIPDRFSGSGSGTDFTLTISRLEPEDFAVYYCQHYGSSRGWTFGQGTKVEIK
Consider B12, for which the MdFI in assay [3] came out at 73000; in assay [2], 250000; in assay [1] it was 59000.
